The target in data set [1] is T1, ParB (Bacillus subtilis, UniProt P26497).
T1 construct: gene spo0J; full-length, untagged
T1 sequence (P26497 1-282): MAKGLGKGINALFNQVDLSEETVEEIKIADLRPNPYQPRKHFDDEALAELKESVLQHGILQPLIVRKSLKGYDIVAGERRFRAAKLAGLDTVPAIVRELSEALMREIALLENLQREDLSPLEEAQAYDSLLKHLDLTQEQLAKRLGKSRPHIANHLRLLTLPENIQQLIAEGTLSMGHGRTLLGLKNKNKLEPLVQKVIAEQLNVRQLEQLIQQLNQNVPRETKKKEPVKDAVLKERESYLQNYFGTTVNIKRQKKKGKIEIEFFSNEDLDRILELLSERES
The data set is described as follows: BLI of ParB loading on and dissociation from parS DNA with nucleotide; N-gate cross-linking. Type of data set: biochemical.

Data set [2] addresses T2, ParB(E78Q) (Bacillus subtilis, UniProt P26497, E78Q).
T2 construct: gene spo0J; full-length, untagged
T2 sequence (P26497 1-282 E78Q): T1 sequence (P26497 1-282) with E78Q
The data set is described as follows: N-gate closure by BMOE cross-linking (T22C); BLI DNA loading. Type of data set: biochemical.

The target in data set [3] is T3, ParB(E111Q) (Bacillus subtilis, UniProt P26497, E111Q).
T3 construct: gene spo0J; full-length, untagged
T3 sequence (P26497 1-282 E111Q): T1 sequence (P26497 1-282) with E111Q
The description is as above. It counts as biochemical.

Data set [4] deals with T3, ParB(E111Q). The data set is described as follows: ITC; also N-gate cross-linking and BLI DNA loading; no appreciable hydrolysis. Type of data set: binding.
Data set [5] addresses T1, ParB. The data set is described as follows: ITC; also CTP hydrolysis (malachite green), N-gate cross-linking and BLI DNA loading. Type of data set: binding.
In data set [6] the target is T2, ParB(E78Q). The data set is described as follows: ITC; also N-gate cross-linking and BLI DNA loading; no appreciable hydrolysis. Type of data set: binding.
For data set [7], the target named is T4, ParB(T22C, E78Q)-HT, P26497.
T4 chain: T1 sequence (P26497 1-282) with T22C, E78Q
The data set is described as follows: in vivo BMOE cysteine cross-linking (SDS-PAGE, HaloTag TMR in-gel fluorescence, band quantification). The settings on record: chain shown with the change, read off a plot.

Data set [8] concerns the molecule itself. The data set is described as follows: cross-linking; in vitro BMOE (1 mM) cysteine cross-linking, 10 uM ParB, with or without 1 mM CTP or CTPγS and 1 uM 40-bp parS DNA, 150 mM NaCl, 50 mM tris-HCl pH 7.5, 5 mM MgCl2, room temperature; SDS-PAGE, Coomassie.
The target in data set [9] is T5, ParB(R105C, H133C, E78Q)-HT, P26497.
T5 chain: T1 sequence (P26497 1-282) with E78Q, R105C, H133C
The data set is described as follows: in vivo BMOE cysteine cross-linking (SDS-PAGE, HaloTag TMR in-gel fluorescence, band quantification). The note with it: chain shown with the change, Inter XL plus Inter 2XL species, read off a plot.

Data set [10] has as its target T6, ParB(R105C, H133C, E111Q)-HT, P26497.
T6 chain: T1 sequence (P26497 1-282) with R105C, E111Q, H133C
The data set is described as above. The note with it: chain shown with the change, Inter XL plus Inter 2XL species, read off a plot.

The target in data set [11] is T7, ParB(T22C, E111Q)-HT, P26497.
T7 chain: T1 sequence (P26497 1-282) with T22C, E111Q
The description is as above. The note with it: chain shown with the change, read off a plot.

[12] abbreviates: parS: Δ8 (strain lacking the 8 parS sites).

Substitutions are numbered along the chain they refer to. Names may count otherwise.

As for `Nc1ccn([C@@H]2O[C@H](COP(=O)(O)OP(=O)(O)OP(O)(O)=S)[C@@H](O)[C@H]2O)c(=O)n1` [CTPγS], the “BLI of ParB loading on and dissociation from parS DNA with nucleotide; N-gate cr” value on ParB [1] was “differences in the dissociation rates between wild-type and EQ proteins were eliminated when CTPγS was used instead of CTP”. Besides, the “N-gate closure by BMOE cross-linking (T22C); BLI DNA loading” value on ParB(E78Q) [2] is “we found that the EQ mutants supported N-gate closure equally well with CTP and CTPγS”; at ParB(E111Q) [3], “we found that the EQ mutants supported N-gate closure equally well with CTP and CTPγS”.

Turning to `Nc1ccn([C@@H]2O[C@H](COP(=O)(O)OP(=O)(O)OP(=O)(O)O)[C@@H](O)[C@H]2O)c(=O)n1` [CTP], the dissociation constant Kd at ParB(E111Q) [4], on ParB [5] and at ParB(E78Q) [6] was 5 to 8 µM each time.

B1: ParB(T22C, E78Q) (natural protein, B. subtilis, UniProt P26497 1-282, looked up)
chain: T1 sequence (P26497 1-282) with T22C, E78Q
notes: ParB, B. subtilis, untagged recombinant protein, CTP hydrolysis-defective mutant with the T22C reporter cysteine; source: E. coli BL21-Gold (DE3), purified (ammonium sulfate, heparin, HiTrap SP, Superdex 200)
B1: the other: fraction of cross-linked dimers in data set [7] (N-N XL species) was 0.57. The figures for the other: fraction of cross-linked species in data set [7] (parS: All) and in data set [7] (setting [12]) were 0.72 and 0.52, respectively. Besides, in [8], the binding result is on record as “binds”.

B2: ParB(A102C, H133C) (natural protein, B. subtilis, UniProt P26497 1-282, looked up)
chain: T1 sequence (P26497 1-282) with A102C, H133C
notes: ParB, B. subtilis, untagged recombinant protein with cysteines at the N-M interface; source: E. coli BL21-Gold (DE3), purified (ammonium sulfate, heparin, HiTrap SP, Superdex 200)
Regarding B2, the binding result in data set [8] was “binds”.

B3: ParB-HT (wt) R105C; H133C; E78Q (protein)
chain: T1 sequence (P26497 1-282) with E78Q, R105C, H133C
Regarding B3, the other: fraction of cross-linked dimers in data set [9] stood at 0.77.

B4: ParB(R105C, H133C) (natural protein, B. subtilis, UniProt P26497 1-282, looked up)
chain: T1 sequence (P26497 1-282) with R105C, H133C
notes: as for B2
As to B4, the binding result in [8] is on record as “binds”.

B5: ParB-HT (wt) R105C; H133C; E111Q (protein)
chain: T1 sequence (P26497 1-282) with R105C, E111Q, H133C
B5: in [10], the other: fraction of cross-linked dimers is 0.2.

B6: ParB(T22C, E111Q) (natural protein, B. subtilis, UniProt P26497 1-282, looked up)
chain: T1 sequence (P26497 1-282) with T22C, E111Q
notes: as for B1
Take B6: the other: fraction of cross-linked dimers in [11] (N-N XL species) was found to be 0.36. For the same molecule, the values for the other: fraction of cross-linked species in data set [11] (parS: All) and in data set [11] (setting [12]) were 0.49 and 0.45, respectively. Further, the binding result in [8] is on record as “binds”.

B7: ParB(T22C) (natural protein, B. subtilis, UniProt P26497 1-282, looked up)
chain: T1 sequence (P26497 1-282) with T22C
notes: ParB, B. subtilis, untagged recombinant protein with a cysteine at the N-gate; source: E. coli BL21-Gold (DE3), purified (ammonium sulfate, heparin, HiTrap SP, Superdex 200)
With B7, the binding result in data set [8] is “binds”.

The values are drawn from article PMC8494293, “Relief of ParB autoinhibition by parS DNA catalysis and recycling of ParB by CTP hydrolysis promote bacterial centromere assembly” (Science Advances, 2021).
